Data: patent US20030100484A1

Biological target: urotensin II receptor (human) (UniProt Q9UKP6)
Test: cell-based or functional assay

Sequence of UniProt Q9UKP6 (Q9UKP6 whole entry): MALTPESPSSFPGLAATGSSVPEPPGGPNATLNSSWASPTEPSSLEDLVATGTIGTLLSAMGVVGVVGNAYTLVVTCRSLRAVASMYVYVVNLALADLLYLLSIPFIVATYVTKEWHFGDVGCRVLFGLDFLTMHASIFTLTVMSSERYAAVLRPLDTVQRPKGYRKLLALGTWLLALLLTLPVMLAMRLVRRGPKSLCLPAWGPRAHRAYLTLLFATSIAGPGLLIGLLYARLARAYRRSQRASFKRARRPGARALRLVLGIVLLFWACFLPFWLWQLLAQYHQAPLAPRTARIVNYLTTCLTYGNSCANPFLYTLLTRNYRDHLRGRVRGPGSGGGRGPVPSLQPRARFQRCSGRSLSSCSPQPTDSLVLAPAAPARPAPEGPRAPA

A CTGF mRNA (real-time PCR, GAPDH mRNA as reference) in human heart fibroblasts after 6 h with 1 µM urotensin II; control 0.45 +/- 0.27 (relative to GAPDH mRNA) of 0.88, a Col 1 mRNA (real-time PCR, GAPDH mRNA as reference) in human heart fibroblasts after 6 h with 1 µM urotensin II; control 0.56 +/- 0.1 (relative to GAPDH mRNA) of 0.92 and an MMP 2 mRNA (real-time PCR, GAPDH mRNA as reference) in human heart fibroblasts after 6 h with 1 µM urotensin II; control 0.43 +/- 0.2 (relative to GAPDH mRNA) of 0.65 were found for “urotensin II (from UniProt O95399 114-124) (peptide)” in this work. For the same substance, the TGFbeta1 mRNA (real-time PCR, GAPDH mRNA as reference) in human heart fibroblasts after 6 h with 1 µM urotensin II; control 0.60 +/- 0.09 (relative to GAPDH mRNA) was 0.81.
